Data: article PMC12786156

Target: Xyloglucanase TpXEG12a from Talaromyces pinophilus (Talaromyces pinophilus)
Test: SEC; gel filtration on Superdex 75 Increase, 20 mM Tris-HCl, 150 mM NaCl, pH 7.5; calibrated with molecular mass standards

Q: “Xyloglucanase TpXEG12a from Talaromyces pinophilus (enzyme)” was tested. Which stoichiometry N did it give?
A: Its stoichiometry N is 2.
